Data published in patent US20140141454A1.

Target: human EpCAM immobilized with paraformaldehyde (on PFA-treated MCF-7 or PC-3 cells) (human) (UniProt P16422)
Assay: liquid-phase ELISA on PC-3 cells in suspension, PFA-treated against untreated

Chain of UniProt P16422 (P16422 24-314 limits assumed): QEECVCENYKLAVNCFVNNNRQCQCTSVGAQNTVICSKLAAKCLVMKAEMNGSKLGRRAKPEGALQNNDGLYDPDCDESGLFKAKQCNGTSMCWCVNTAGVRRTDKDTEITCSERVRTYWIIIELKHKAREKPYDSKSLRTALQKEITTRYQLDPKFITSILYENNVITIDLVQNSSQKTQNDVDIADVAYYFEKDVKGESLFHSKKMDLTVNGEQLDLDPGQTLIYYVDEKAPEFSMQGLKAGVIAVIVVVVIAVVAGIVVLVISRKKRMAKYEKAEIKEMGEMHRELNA

fold change of ELISA signal after 4% PFA treatment: < 1.5 fold
Substance: HEA-125 anti-EpCAM monoclonal antibody
